Experimental data from article PMC12009303, “Structural characterization of antibody-responses following Zolgensma treatment for AAV capsid engineering to expand patient cohorts” (Nature Communications, 2025).

Biological target: T1, AAV9 capsid (adeno-associated virus serotype 9, UniProt Q6JC40)
T1 construct: also called wtAAV9; AAV9 vector; copies: 60
Assay: far-Western, overlay or dot blot; native dot immunoblot: native capsids adsorbed onto nitrocellulose; human mAbs at ~1 µg/ml in PBS with 6% milk, 0.1% Tween-20, 1 h; anti-human-HRP
Conditions: both partners purified

Binder | binding result
mAb3-7 (antibody, V domains shown) VH: QVQLQESGPGLVKPSETLSLTCTVSGGSISNYYWNWIRQPPGKGLEWIGYVHYSGSTNYNPSLKSRVSVSVDTSKNQFSLNLGSVTAADTAVYYCARQSRSYYNEVITDPKYNFDYWGQGTLVTVSS VL: QSALTQPASVSGSPGQSITISCTGTSSDVGGYDYVSWYQQHPGKAPKLMIYDVSNRPSGVSNRFSGSKSGNTASLTISGLQAEDEADYYCSSYTSISTLVFGGGTKLTVL | binds
mAb3-6 (antibody, V domains shown) VH: EVQLVESGGGLVQPGGSLRLSCSASGFHFSSYEMNWVRQAPGKGLEWVSYISSSGTYIDYADSVKGRFTISRDNPANSLYLQMYSLRAEDTAVYYCARRLWFGELPYSYYYGMDVWGQGTTVTVSS VL: ALTQPASVSGSPGQSITISCTGTSSDIGGYNYVSWYQQHPGKAPELLIFDVSNRPSGVSNRFSGSKSGNTASLTISGLQAEDEADYHCCSYTRTSTVIFGGGTKLTVL | binds
